Laboratory results as given in patent publication US20090105116A1.

B1: mCst20, P0CY24 469-490 (peptide)
peptide: VNIKISTPFNAKHLAHVGIDDN
modifications: not checked
B2: eCla4-SLAM (peptide)
peptide: GGNSGFPGPINFTHKVHVGFDRKSLTIYAQVQKNFTGLPDTWKSLLQHSKIT
modifications: not checked
B3: eCla4, O14427 227-270 (peptide)
peptide: GNSGVSGPINFTHKVHVGFDPASGNFTGLPDTWKSLLQHSKITN
modifications: not checked
B4: SH2 domain from the SAP protein (protein)
chain: GSSHHHHHHSSFNPRGSDAVAVYHGKISRETGEKLLLATGLDGSYLLRDSESVPGVYCLCVLYHGYIYTYRVSQTETGSWSAETAPGVHKRYFRKIKNLISAFQKPDQGIVIPLQYPVEK
B5: mCla4-cCst20 (peptide)
peptide: GGNSGVSGPINFTHKVHVGFDPASGSYTGLPIEWERLLSASGIT
modifications: not checked
B6: mCst20-P-cCla4 (peptide)
peptide: EVNIKISTPFNAKHLAHVGIDPDNGNFTGLPDTWKSLLQHSKIT
modifications: not checked
B7: mCla4, O14427 227-248 (peptide)
peptide: GNSGVSGPINFTHKVHVGFDPA
modifications: not checked
B8: cCla4, O14427 249-270 (peptide)
peptide: SGNFTGLPDTWKSLLQHSKITN
modifications: not checked
B9: mCst20-cCla4 (peptide)
peptide: EVNIKISTPFNAKHLAHVGIDDNGNFTGLPDTWKSLLQHSKIT
modifications: not checked
B10: eCla4-SG, O14427 227-248; O14427 249-270 (peptide)
peptide: GGNSGVSGPINFTHKVHVGFDSGSGNFTGLPDTWKSLLQHSKIT
modifications: not checked
B11: cCst20, P0CY24 491-512 (peptide)
peptide: GSYTGLPIEWERLLSASGITKK
modifications: not checked
B12: eCst20, P0CY24 469-512 (peptide)
peptide: VNIKISTPFNAKHLAHVGIDDNGSYTGLPIEWERLLSASGITKK
modifications: not checked

Legend:
[1] = molecular target: T1, CaCdc42 (R150K), sNBD-labeled and GMPPCP-loaded (Candida albicans); experiment: fluorescence titration of 1 µM sNBD-labeled, GMPPCP-loaded CaCdc42 (R150K)
[2] = molecular target: T1, CaCdc42 (R150K), sNBD-labeled and …; experiment: fluorescence cross-titration; mCst20 with cCst20 added, against mCst20 alone
[3] = molecular target: T1, CaCdc42 (R150K), sNBD-labeled and …; experiment: fluorescence titration of 1 µM sNBD-labeled, GMPPCP-loaded CaCdc42 (R150K) with the peptide [panel B]
[4] = molecular target: T1, CaCdc42 (R150K), sNBD-labeled and …; experiment: fluorescence cross-titration of sNBD-labeled CaCdc42 (R150K) in the presence of cCst20
[5] = molecular target: T1, CaCdc42 (R150K), sNBD-labeled and …; experiment: fluorescence titration of 1 µM CaCdc42 (R150K) with eCla4-SLAM, no SAP-SH2
[6] = molecular target: T1, CaCdc42 (R150K), sNBD-labeled and …; experiment: fluorescence titration of 1 µM sNBD-labeled, GMPPCP-loaded CaCdc42 (R150K) with the peptide [panel A]
eCla4-SLAM = experiment: fluorescence titration of sNBD-CaCdc42 (R150K) with eCla4-SLAM in the presence of SAP-SH2 (competition; fit of the apparent Kd against SAP-SH2 concentration)
[7] = molecular target: T1, CaCdc42 (R150K), sNBD-labeled and …; experiment: fluorescence cross-titration of sNBD-labeled CaCdc42 (R150K) in the presence of cCla4
[8] = molecular target: T1, CaCdc42 (R150K), sNBD-labeled and …; experiment: fluorescence cross-titration of sNBD-labeled CaCdc42 (R150K) in the presence of 50 µM mCla4
[9] = molecular target: T1, CaCdc42 (R150K), sNBD-labeled and …; experiment: fluorescence cross-titration of sNBD-labeled CaCdc42 (R150K) in the presence of 50 µM mCst20
[10] = molecular target: T1, CaCdc42 (R150K), sNBD-labeled and …; experiment: fluorescence cross-titration; cCst20 with mCst20 added, against cCst20 alone

Binder	Kd [1]	further results
B1	0.43 µM	fold enhancement in binding upon addition of the cognate peptide [2]: 5.5 fold; EC50 (read off the curve) [3]: 0.9 µM; Kd [4]: 0.081 µM
B2	0.127 µM	EC50 (read off the curve) [5]: 0.7 µM
B3	0.025 µM	EC50 (read off the curve) [6]: 0.5 µM
B4	–	Ki (eCla4-SLAM): 362 µM
B5	0.031 µM	–
B6	0.093 µM	–
B7	4.2 µM	Kd [7]: 4.1 µM
B8	275 µM	Kd [8]: 311 µM
B9	2.64 µM	–
B10	0.067 µM	–
B11	1160 µM	Kd [9]: 207 µM; fold enhancement in binding upon addition of the cognate peptide [10]: 5.5 fold
B12	0.046 µM	EC50 (read off the curve) [6]: 0.5 µM
